Measurements published in the supplement of paper PMC11246515.
± gives the standard deviation of the averaged measurements.

Assay: total protein half-life in vivo (active degradation + dilution); higher = more stable protein
[1] = E. coli NCM3722 delta-clpP delta-lon delta-hslV, growth: N-lim chemostat, doubling time 6 h
[2] = E. coli NCM3722 delta-clpP, growth: N-lim chemostat, doubling time 6 h
[3] = E. coli NCM3722 delta-hslV, growth: N-lim chemostat, doubling time 6 h
[4] = E. coli NCM3722 delta-lon, growth: N-lim chemostat, doubling time 6 h
[5] = E. coli NCM3722 delta-smpB, growth: N-lim chemostat, doubling time 6 h
[6] = wild type E. coli NCM3722, growth: C-lim chemostat, doubling time 3 h
[7] = wild type E. coli NCM3722, growth: C-lim chemostat, doubling time 6 h
[8] = wild type E. coli NCM3722, growth: C-lim chemostat, doubling time 12 h
[9] = wild type E. coli NCM3722, growth: N-lim chemostat, doubling time 6 h
[10] = wild type E. coli NCM3722, growth: N-lim chemostat, doubling time 12 h
[11] = wild type E. coli NCM3722, growth: P-lim chemostat, doubling time 6 h
[12] = wild type E. coli NCM3722, growth: P-lim chemostat, doubling time 12 h

MKVMRTTVATVVAATLSMSAFSVFAEASLTGAGATFPAPVYAKWADTYQKETGNKVNYQGIGSSGGVKQIIANTVDFGASDAPLSDEKLAQEGLFQFPTVIGGVVLAVNIPGLKSGELVLDGKTLGDIYLGKIKKWDDEAIAKLNPGLKLPSQNIAVVRRADGSGTSFVFTSYLAKVNEEWKNNVGTGSTVKWPIGLGGKGNDGIAAFVQRLPGAIGYVEYAYAKQNNLAYTKLISADGKPVSPTEENFANAAKGADWSKTFAQDLTNQKGEDAWPITSTTFILIHKDQKKPEQGTEVLKFFDWAYKTGAKQANDLDYASLPDSVVEQVRAAWKTNIKDSSGKPLY [P0AG82]
total protein half-life in vivo [1]: 4.1 ± 0.22 h
total protein half-life in vivo [2]: 5.18 ± 0.54 h
total protein half-life in vivo [3]: 6.12 ± 0.3 h
total protein half-life in vivo [4]: 6.31 ± 0.76 h
total protein half-life in vivo [5]: 6.08 ± 0.12 h
total protein half-life in vivo [6]: 3.42 ± 0.057 h
total protein half-life in vivo [7]: 6.04 ± 0.31 h
total protein half-life in vivo [8]: 11.7 ± 0.42 h
total protein half-life in vivo [9]: 6.11 ± 0.43 h
total protein half-life in vivo [10]: 12.9 ± 0.66 h
total protein half-life in vivo [11]: 5.67 ± 0.093 h
total protein half-life in vivo [12]: 11.5 ± 0.23 h

MKVTFEQLKAAFNRVLISRGVDSETADACAEMFARTTESGVYSHGVNRFPRFIQQLENGDIIPDAQPKRITSLGAIEQWDAQRSIGNLTAKKMMDRAIELAADHGIGLVALRNANHWMRGGSYGWQAAEKGYIGICWTNSIAVMPPWGAKECRIGTNPLIVAIPSTPITMVDMSMSMFSYGMLEVNRLAGRQLPVDGGFDDEGNLTKEPGVIEKNRRILPMGYWKGSGMSIVLDMIATLLSDGASVAEVTQDNSDEYGISQIFIAIEVDKLIDGPTRDAKLQRIMDYVTSAERADENQAIRLPGHEFTTLLAENRRNGITVDDSVWAKIQAL
total protein half-life in vivo [6]: 2.77 ± 0.16 h
total protein half-life in vivo [7]: 5.23 ± 0.17 h
total protein half-life in vivo [8]: 9.43 ± 1.9 h

MKVTLPEFERAGVMVVGDVMLDRYWYGPTSRISPEAPVPVVKVNTIEERPGGAANVAMNIASLGANARLVGLTGIDDAARALSKSLADVNVKCDFVSVPTHPTITKLRVLSRNQQLIRLDFEEGFEGVDPQPLHERINQALSSIGALVLSDYAKGALASVQQMIQLARKAGVPVLIDPKGTDFERYRGATLLTPNLSEFEAVVGKCKTEEEIVERGMKLIADYELSALLVTRSEQGMSLLQPGKAPLHMPTQAQEVYDVTGAGDTVIGVLAATLAAGNSLEEACFFANAAAGVVVGKLGTSTVSPIELENAVRGRADTGFGVMTEEELKLAVAAARKRGEKVVMTNGVFDILHAGHVSYLANARKLGDRLIVAVNSDASTKRLKGDSRPVNPLEQRMIVLGALEAVDWVVSFEEDTPQRLIAGILPDLLVKGGDYKPEEIAGSKEVWANGGEVLVLNFEDGCSTTNIIKKIQQDKKG
total protein half-life in vivo [1]: 5.6 ± 0.12 h
total protein half-life in vivo [2]: 5.98 ± 1.2 h
total protein half-life in vivo [3]: 5.19 ± 0.094 h
total protein half-life in vivo [4]: 5.89 ± 0.14 h
total protein half-life in vivo [5]: 5.15 ± 0.11 h
total protein half-life in vivo [6]: 3.1 ± 0.062 h
total protein half-life in vivo [7]: 5.74 ± 0.21 h
total protein half-life in vivo [8]: 11.032 ± 0.011 h
total protein half-life in vivo [9]: 5.3 ± 0.34 h
total protein half-life in vivo [10]: 9.17 ± 0.1 h
total protein half-life in vivo [11]: 5.82 ± 0.12 h
total protein half-life in vivo [12]: 12.3 ± 0.15 h

MKWFNTLSHNRWLEQETDRIFDFGKNSVVPTGFGWLGNKGQIKEEMGTHLWITARMLHVYSVAAAMGRPGAYSLVDHGIKAMNGALRDKKYGGWYACVNDEGVVDASKQGYQHFFALLGAASAVTTGHPEARKLLDYTIEIIEKYFWSEEEQMCLESWDEAFSKTEEYRGGNANMHAVEAFLIVYDVTHDKKWLDRAIRVASVIIHDVARNNHYRVNEHFDTQWNPLPDYNKDNPAHRFRAFGGTPGHWIEWGRLMLHIHAALEARCEQPPAWLLEDAKGLFNATVRDAWAPDGADGIVYTVDWEGKPVVRERVRWPIVEAMGTAYALYTVTGDRQYETWYQTWWEYCIKYLMDYENGSWWQELDADNKVTTKVWDGKQDIYHLLHCLVIPRIPLAPGMAPAVAAGLLDINAK
total protein half-life in vivo [1]: 7.17 h
total protein half-life in vivo [7]: 4.37 h
total protein half-life in vivo [8]: 5.87 h

MKYDLIIIGSGSVGAAAGYYATRAGLNVLMTDAHMPPHQHGSHHGDTRLIRHAYGEGEKYVPLVLRAQTLWDELSRHNEEDPIFVRSGVINLGPADSTFLANVAHSAEQWQLNVEKLDAQGIMARWPEIRVPDNYIGLFETDSGFLRSELAIKTWIQLAKEAGCAQLFNCPVTAIRHDDDGVTIETADGEYQAKKAIVCAGTWVKDLLPELPVQPVRKVFAWYQADGRYSVKNKFPAFTGELPNGDQYYGFPAENDALKIGKHNGGQVIHSADERVPFAEVASDGSEAFPFLRNVLPGIGCCLYGAACTYDNSPDEDFIIDTLPGHDNTLLITGLSGHGFKFASVLGEIAADFAQDKKSDFDLTPFRLSRFQ
total protein half-life in vivo [1]: 4.35 ± 1.2 h
total protein half-life in vivo [2]: 3.046 ± 0.022 h
total protein half-life in vivo [3]: 3.23 ± 0.11 h
total protein half-life in vivo [4]: 3.34 ± 0.26 h
total protein half-life in vivo [5]: 3.1 ± 0.046 h
total protein half-life in vivo [6]: 2.99 ± 0.11 h
total protein half-life in vivo [7]: 5.49 ± 0.24 h
total protein half-life in vivo [8]: 6.92 ± 1.5 h
total protein half-life in vivo [9]: 3.11 ± 0.23 h
total protein half-life in vivo [10]: 5.46 ± 0.065 h
total protein half-life in vivo [11]: 5.55 ± 0.089 h
total protein half-life in vivo [12]: 10.5 ± 0.16 h

MKYLASFRTTLKASRYMFRALALVLWLLIAFSSVFYIVNALHQRESEIRQEFNLSSDQAQRFIQRTSDVMKELKYIAENRLSAENGVLSPRGRETQADVPAFEPLFADSDCSAMSNTWRGSLESLAWFMRYWRDNFSAAYDLNRVFLIGSDNLCMANFGLRDMPVERDTALKALHERINKYRNAPQDDSGSNLYWISEGPRPGVGYFYALTPVYLANRLQALLGVEQTIRMENFFLPGTLPMGVTILDENGHTLISLTGPESKIKGDPRWMQERSWFGYTEGFRELVLKKNLPPSSLSIVYSVPVDKVLERIRMLILNAILLNVLAGAALFTLARMYERRIFIPAESDALRLEEHEQFNRKIVASAPVGICILRTADGVNILSNELAHTYLNMLTHEDRQRLTQIICGQQVNFVDVLTSNNTNLQISFVHSRYRNENVAICVLVDVSSRVKMEESLQEMAQAAEQASQSKSMFLATVSHELRTPLYGIIGNLDLLQTKELPKGVDRLVTAMNNSSSLLLKIISDILDFSKIESEQLKIEPREFSPREVMNHITANYLPLVVRKQLGLYCFIEPDVPVALNGDPMRLQQVISNLLSNAIKFTDTGCIVLHVRADGDYLSIRVRDTGVGIPAKEVVRLFDPFFQVGTGVQRNFQGTGLGLAICEKLISMMDGDISVDSEPGMGSQFTVRIPLYGAQYPQKKGVEGLSGKRCWLAVRNASLCQFLETSLQRSGIVVTTYEGQEPTPEDVLITDEVVSKKWQGRAVVTFCRRHIGIPLEKAPGEWVHSVAAPHELPALLARIYLIEMESDDPANALPSTDKAVSDNDDMMILVVDDHPINRRLLADQLGSLGYQCKTANDGVDALNVLSKNHIDIVLSDVNMPNMDGYRLTQRIRQLGLTLPVIGVTANALAEEKQRCLESGMDSCLSKPVTLDVIKQTLTLYAERVRKSRDS [P0DMC5]
total protein half-life in vivo [2]: 6.287 ± 0.034 h
total protein half-life in vivo [3]: 5.76 ± 0.49 h
total protein half-life in vivo [4]: 6.22 ± 0.067 h
total protein half-life in vivo [5]: 5.88 ± 0.48 h
total protein half-life in vivo [6]: 2.98 ± 0.21 h
total protein half-life in vivo [7]: 6.119 ± 0.024 h
total protein half-life in vivo [8]: 13.1 ± 2.3 h
total protein half-life in vivo [9]: 6.01 ± 0.37 h
total protein half-life in vivo [10]: 11.6 ± 0.28 h
total protein half-life in vivo [11]: 6.1 ± 0.12 h
total protein half-life in vivo [12]: 11.8 ± 0.82 h

MKYVDGFVVAVPADKKDAYREMAAKAAPLFKEFGALRIVECWASDVPDGKVTDFRMAVKAEENEEVVFSWIEYPSKEVRDAANQKMMSDPRMKEFGESMPFDGKRMIYGGFESIIDE [P0AAQ6]
total protein half-life in vivo [1]: 4.294 ± 0.022 h
total protein half-life in vivo [2]: 2.69 ± 0.41 h
total protein half-life in vivo [3]: 3.26 ± 1.4 h
total protein half-life in vivo [4]: 3.82 ± 0.1 h
total protein half-life in vivo [5]: 1.51 ± 0.073 h
total protein half-life in vivo [7]: 2.63 ± 0.71 h
total protein half-life in vivo [8]: 2.54 ± 0.65 h
total protein half-life in vivo [9]: 2.14 h
total protein half-life in vivo [10]: 2.62 ± 0.04 h
total protein half-life in vivo [11]: 3.082 ± 0.03 h
total protein half-life in vivo [12]: 6.13 ± 0.85 h

MLAFCRSSLKSKKYIIILLALAAIAGLGTHAAWSSNGLPRIDNKTLARLAQQHPVVVLFRHAERCDRSTNQCLSDKTGITVKGTQDARELGNAFSADIPDFDLYSSNTVRTIQSATWFSAGKKLTVDKRLLQCGNEIYSAIKDLQSKAPDKNIVIFTHNHCLTYIAKDKRDATFKPDYLDGLVMHVEKGKVYLDGEFVNH
total protein half-life in vivo [1]: > 8 h
total protein half-life in vivo [2]: 5.63 h
total protein half-life in vivo [3]: 4.99 ± 1.1 h
total protein half-life in vivo [6]: 3 ± 1.2 h
total protein half-life in vivo [7]: 4.93 ± 1.4 h
total protein half-life in vivo [9]: 4.21 ± 2.1 h
total protein half-life in vivo [11]: 5.09 ± 0.5 h
